The text below walks through data of paper PMC7299284, “Studies in humanized mice and convalescent humans yield a SARS-CoV-2 antibody cocktail” (Science (New York, N.y.), 2020).

Experiment [1] deals with T1, RBD of SARS-CoV-2 spike (construct not told: ACE2 blocking, cross-competition and HDX-MS experiments) (SARS-CoV-2, UniProt P0DTC2).
T1 construct: also called spike protein RBD
Nature of the experiment: cross-competition binding assay; cross-competition of the nine most-potent neutralizing antibodies for binding to RBD (fig. S7).

The target of experiment [2] is T1, RBD of SARS-CoV-2 spike (construct not …). Nature of the experiment: HDX-MS; hydrogen-deuterium exchange mass spectrometry of spike protein RBD with each of nine antibodies. The following applies: both partners purified.

B1: REGN10987 (antibody, V domains shown)
VH: QVQLVESGGGVVQPGRSLRLSCAASGFTFSNYAMYWVRQAPGKGLEWVAVISYDGSNKYYADSVKGRFTISRDNSKNTLYLQMNSLRTEDTAVYYCASGSDYGDYLLVYWGQGTLVTVSS
VL: QSALTQPASVSGSPGQSITISCTGTSSDVGGYNYVSWYQQHPGKAPKLMIYDVSKRPSGVSNRFSGSKSGNTASLTISGLQSEDEADYYCNSLTSISTWVFGGGTKLTVL
notes: source: CHO cells, transfected, recombinant fully human antibody; copies: 2 + 2
For the molecule B1, the binding result in experiment [1] is given as “binds”.

B2: REGN10933 (antibody, V domains shown)
VH: QVQLVESGGGLVKPGGSLRLSCAASGFTFSDYYMSWIRQAPGKGLEWVSYITYSGSTIYYADSVKGRFTISRDNAKSSLYLQMNSLRAEDTAVYYCARDRGTTMVPFDYWGQGTLVTVSS
VL: DIQMTQSPSSLSASVGDRVTITCQASQDITNYLNWYQQKPGKAPKLLIYAASNLETGVPSRFSGSGSGTDFTFTISGLQPEDIATYYCQQYDNLPLTFGGGTKVEIK
notes: as for B1
B2: the binding result in experiment [2] was “binds”.
